Experiment: yeast display, Sf9 membrane polyspecificity reagent, FACS + sequencing; frameworks hold sequencing errors
Summary of the method: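 Synthetic nanobody libraries on Saccharomyces cerevisiae BJ5465 were galactose-induced for 36–48 hours, stained 1 hour at 4 °C with 10% biotinylated, detergent-solubilized Sf9 membrane reagent and enriched on streptavidin microbeads. FACS then separated cells into low and high (top ~1%) gates by anti-HA (expression) and streptavidin (reagent binding) fluorescence. Genes were colony-PCR amplified, MiSeq 2 × 250 sequenced and CDR-length filtered. A clone's polyreactivity label is that of its gate of origin.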

Row | Sequence | polyreactivity (PSR sort gate)
1 | QVQLVESAGGLVQAGGSLRLSCAASGSTLYKYAMGWYRQAPGKETEMVATLTRTDSTNYADSVKGRFTISRDNAKNTVYIQMNSLKPEDTAVYYCAARRVYYNGYYVNVGSFYYWGQGTQVTVSS | low polyreactivity
2 | QVQLVESGGGLVQAGGSLRLSCAASGFIFIYNAMGWYRQAPGKERELVAAITGSDGGTFYADSVKGRFTISRDNAKNTVYLQMNSLKPEDTAVYYCNADIVGFQWGYDYWGQGTQVTVSS | low polyreactivity
3 | QVQLQESGGGLVHAGGSLRLSCAASGTISFINMMGWYRQAPGRERELVASINFGANTNYADSVKGRFTISRDNAKNTVYLQMNSLKPEDTAVYYCAVYDFDAYTLYYWGQGTLVTVSS | high polyreactivity
4 | QVQLVESGGRLVQAGGSHRLSCAASGRTFNVYAMGWYRQAPGKERELVASISSSDTTNYADSVKGRFTISRDNAKNTVYLQMNSLKPEDTAVYYCAADYTPDLLSKVDYCGQGTQVTVSS | low polyreactivity
5 | QVQLVESGGGLVQAGGSLRLSCAASGSTFGGYAMGWYRQEPGKERELVAAISSRGARTYYADSVKGRFTISRDNAKKTVYLQMNSLKPEDTAVYYCAARGPLDRYGYWGQGTQVTVSS | high polyreactivity
6 | QVQLVESGGGLVQAGGSLRLSCAASGRIFTRYAMGWYCQAPGNDRELVAVIRDGSTYYADSVKGRFTISRDNGKNTVYLQMNSLKPEDTAVYYCRYDIWDWWSGAYDYWGQGTQVTVSS | low polyreactivity
7 | QVNLVDSGGGLVQAGGSHRLSCAASGSIVSGNAMGWYRQEPGKERELVATISWSGGSTNYADSVKGRFTISRDNAKNTVYLQMNSLKPEDTAVYYCNAYVAYWGWVYRVDYWGQGTQVTVSS | low polyreactivity
8 | QVQLVESGGGLVQAGGSLRLSCAASGFTFDEKAMGWYRQAPGINYSGASTYYADSVKGRFTISRDNAKNTVYLQMNSLKPEDTAVYYCAAEVVAQMNYWGQGTQVTVSS | low polyreactivity
9 | QVQLVESGGGLVQAGGSLRLSCAASGITIYWYAMGWYRQAPGKERELVAAITRSVGSTYYADSVKGRFTISRDNAKNTVYLQMNSLKPEDTAVYYCAADFYYYGFDYWGQGTQVTVSS | low polyreactivity
10 | QVQLVESGGGLVQAGGSLRLSCAASGITFWGYAMGWYRQAPGKEREFVARINWSGGRTYYAESVKGRFTISRDNAKKTVYLQMNSLKPEDTAVYYCAATSRIYGYRTYDDWGQGTQVTVSS | high polyreactivity
11 | QVQLVESVGSLVQAGVSLRLSCAASGFILYANAMGWYRQAPGKERELGAAISRGTSTYYADSVKGRFTISRDNAKNTVYLQMTSLKPEDTAVYYCATSSYRPWGGYYWGQGTQVTVSS | high polyreactivity
12 | QVQLVESGGGLVQAGGSLRLSCAASGNIFYRNAIGWYRQAPGKERELVAAIRGGGSTNYADSVKGRFTISRDNAKNTVYLQMNSLKPEDTAVYYCNTVRSPPGHDYWGQGTQVTVSS | low polyreactivity
13 | QVQLVESGGGLVQAGGSLRLSCAASGIIFYKNVMGWYRQAPGKERELVAAINRSGGRTYYADSVKGRFTISRDNAKNTVYLQMNSLKPEDTAVYYCARSGTVFGRTYDYWGQGTQVTVSS | high polyreactivity
14 | QVQLVESGGGLVQAGGSLRLSCAASGFIFVYYAMGWYRQAPGKERELVAAISRASSTSYADSVKGRFTISRDNAKNTVYLQMISLKPEDTAVYYCAAVYYGGFSDYDYWGQGTQVTVSS | low polyreactivity
15 | QVQLVESGGGLVQAGGSLRLSCAASGRIFNTYAMGWYRQAPGKERELVAAITSSGGSTYYADSVKGRFTISRDNAKNTVYFQMNSLKPEDTAVYYCNAGSLHRRYYYEGDYWGQGTQVTVSS | high polyreactivity
16 | QVQLVESAGGLVQAGGSRRLSCAASGRNFPFYAMGWYRQAPGKERELVATISSGDRTNYAVSVKGRFTISRDNAKNTVYLQMNSLKPEDTAVYYCAADFAVKYRKRVRRYSWGHGTQVTVSS | low polyreactivity
17 | QVQLVESGGGLVQAGGSLRLSCAASGSTFTTYAMGWYRQATGKERELVASITWRGGSTYADSVKGRFTISRDNAKNTVYLEMNSLKPEDTAVYYCAAATRASAQFPRQRYYYWGQGTQVTVSS | high polyreactivity
18 | QVQLVESGGGLVQAGGSLRLSCAASGLILGVYTMGWYRQAPGKEREFVASINYGGGSTYYADSVKGRFTISRDNAKNTVYLQMNSLKPEDTAVYYCNARSRWGGTRLYSYDYWGQGTQVTVSS | low polyreactivity
19 | QVQLVESGGGLVQAGGSLRLSCAASGITFDSYAMGWYRQAPGKERELVATISRSGTTTYYADSVKGRFTISRDNAKNTGYLQMNSLKPEDTAVYYCNTLRDYWTYHFYGAVRDGYDYWGQGTQVTVSS | low polyreactivity
20 | QVQLVESGGGLVQAGGSLRLSCAASGSTVGYYDMGWYRQAPGKERELVATITKSGGTTRYADSVKGRFTISRDNAKNTVYLQMNSLKPEDTAVYYCAADGTWRLLDDYWGQGTQVTVSS | low polyreactivity
21 | QVQLVESGGGLVQAGGSLRLSCAASGSIFKRYAMGWYRQAPGKERELVAAISTSGGRTYYADSVKGRFTISRDNAKNTVYLQMNRLNQEDTAVYYCAADIWARYYFWGFEHDYWGQGTQVTVSS | low polyreactivity
22 | QVQLGESGGGLVQAGGSLRLSCAASGFTFTHYSMGWYRQAPGKERELVAAISTSGGSTYYADSVKGRFTISRDTAKNSVYLQMNSLKPEDTAVYYCAARRDGCVLWGYYYWGQGTQVTVSS | low polyreactivity

Row | Sequence | polyreactivity (PSR sort gate)
23 | QVHLVESGGGLVQAGGSLRLSCAASGFTFGWNAMGWYRQAPGKERELVASINSGGSTYNADSVKGRFTISRDNAKNTVYLEMNFLKPEDTAVYYCATAPYVTSRRYGPYEYWGQGSQVTVSS | low polyreactivity
24 | QVQLVESGGGLVQAGGSLRLSCAASGSTFAIYAMGWYRPAPGKERELVASISGGSTNYADSVKGRFTISRDNAKNTVDLQMNSLKPEDTADYYCAARGALHHWYRYDYWGQGTQVTVSS | low polyreactivity
25 | QVQLVESGGGLVQAGGSLRLSCAASGFILTSYAMGWYRQAPGKERELVAAISSRGGRTYYADSVKGRFTISRDNAKNTVYLQMNSLKPEDTAVYFCNAVVYVVGDFDYWGQGTQVTVSS | high polyreactivity
26 | QVQLVESGGGLVQAGGSLRLSCAASGSIFVNYAMGWYRQAPGKERELVAAISTGGGRTFYADSVKGRFTISRDNAKNTVYLQMNSLKPEDTAVYYCNNLGRTEYDYWGQGTQVTVSS | high polyreactivity
27 | QVQLVESGGGLVQAGGSLRLSCAASGRTIRSYAMGRSRQAPGKEREWVAAISWSGGRTYYADSVKGRFTISRDNAKYTVYLQMTSLKPEDTADYYCAARVSVGVPRYEYWGQGTQVTVSA | high polyreactivity
28 | QVQLVESGGGLVQAGGSLRLSCAASGPTFGGYTMGWYRQAPGKERELVAAITWSGGRTYYADSVKGRFTISRDNAKNTVYLQMNSLKPEDTAVYFCATSRSRERPLHNGPYYYWGLGTQVTVSS | high polyreactivity
29 | QGQLVESGGGLVQAGGSLRLSCAASGTFSPYAMGWYRPAPGKERELVAVITSNTGRTYADSVKGRFTISRDNAKNTVYLQMNSLKPEDTAVYYCASRSTYRHWYRTGSRFDYWGQGTQVTVSS | low polyreactivity
30 | QVQLVESGGGLVQAGGTLRFSCAASGFTFYVYAMGWYRQAPGKERELVAAISKSGGSTYYADSVKGRFTISRDNAKNTVYLQMNSLKPEDTAVYYCAVYDKRSGYRGGHRYNSWGQGTQVTVSS | high polyreactivity
31 | QVQLVESGGGLFQAGRSLPLSCAASGIIFTQYPMGWYRQAPGKERELVAAISGSGGRTYYADSVKGRFSISRDNEKNTVYLQMKILKPEDTAVYYCAARYARYGNDYWGQCTQVTVSS | high polyreactivity
32 | QVQLVESGGGLVQAVGRLRLSCAASGFTFPWYAMGWYRHAPGKERELVAAISTSGDSTYYADSVKGRFTISRDNAKNTVYLQMNSLKPADTAVYYCAARVVRGRYGYWGQGTQVTVSS | high polyreactivity
33 | QVQLVESGGGLVQAGGSLRLSCAASGSIFNPYDMGWYRQAPGKERELVAAIDWSGGSTYYADSVKGRFTISRDNAKNTVYLQMNSLKPEDTAVYYCNAESYQDTLFGADNDYDYWGQGTQVTVSS | low polyreactivity
34 | QVQLVESGGVLVHAGGILRLSCAASGSTIVRYAMGWYRQAPGKERELVAAKSSRGGSTYYADSVKGRFTITRDNAKNTVYLQMNILKPEDTGVYYCSAAPPGTIAYRVGSWGQGTQVTVSS | high polyreactivity
35 | QVQLVESGGGLVQAGGSLRLSCAASGFIFRRNAMGWSRQAPRKERELVAAISSRGGTTYYADSVKGRFTISRDNAKNTVYLQMNSLKPEDTAVYYCNAVKFGATAYDYWGQGTQVTVSS | high polyreactivity
36 | QVQLVESGGGLVQAAGSLRFSWAASRSIFRQYGMGWYRQAHGKERELVARISRRSGTTYYADSVKGRFTISRDYAKNTVYLQMNSLKPEDSAVSYCAAVPGWIHVDYWGQGTQVTVSS | high polyreactivity
37 | QVQRVESGGGLVQAGGSLRLSCAASGSTFPRNAMGWYRQAPGKEREFVAAISYSGGRTYYADSVKGRFTISRDNAKNTVYLQMNSLKPEDTAVYYCAAQPYSHVRGKSYGYWGQGTQVTVSS | high polyreactivity
38 | QDQLVESGGGLVQAGGSLRLSCAASGFTFTRYAMGWYRQAPGKERELVAAITRRSGRTYYADSVKGRFTISRDNAKNTVYLQMNSLKPEDTAVYYCNAVRTTPSGSLPLAYDYWGQGTQVTVSS | high polyreactivity
39 | QVQLEESGGGLVQGGCSLRLSCAGSGSIFIQYDMGWYRQAPVIERELVATIRSGDSTTYADSVKGRFTISRDNAKNTVYLQMNSLKPEDTAVYYCAKDYRLDYDYDYWGQGTQVTVSS | low polyreactivity
40 | QVQLVESGGGLVQAGGSLRLSCAASGRTFGYNVMGWYRQAPGKERELVAAINRGGGSTYYADSVKGRFTISRDNANNTVYLQMNSLKPEDTAVYYCIKRYRVWFDYWGQGTQVTVSS | high polyreactivity
41 | QVQLVESGGGLVQAGGSLRLSCAASGSIIRWYTMAWYRQAPGKESEFVAAITRSGGSTYYADSVKVRFTISRDNAKNTVYLQMNSLKPEDTAVYYCARYANYDKRYDYWGQGTQVTVSS | high polyreactivity
42 | QVQLVESGGGLVQAGGSLRLSCAASGRIFYPYAMGWYRQAPGKERELVAAISYSGGSTFYADSVKGRFTISRDNAKNTVYLQMNSLKPEDTAVYYCIKPGLYIYGSWGQGTQVTVSS | high polyreactivity
43 | QVKLVESGGGLVQAGGSLRLSCAASGSIFLVKVMGWYRQAPGKERELVAAITWSGGRTYYADSVKGRFTISRDNAKNTVYLQMIILKPEDTAVYYCAAEGWLLNGDSWGQGTQVTVSS | high polyreactivity
